Source: US20120021993A1 (AJOU UNIVERSITY INDUSTRY ACADEMIC COOPERATION FOUNDATION, published 2012)

How the values were obtained:
[1] = biological target: T1, human-derived cell death receptor 4, extracellular domain (amino acid residues 1-216), 6xHis tag (human, UniProt O00220 24-239); assay: ELISA, coated target, single binder concentration not given, A405
T1 construct: extracellular domain; Expressed in E. coli; biotinylated for sorting and flow cytometry; residues 1-216; also called DR4; TRAIL-receptor 1
T1 sequence (O00220 other isoform, or with tags, fused parts or gaps): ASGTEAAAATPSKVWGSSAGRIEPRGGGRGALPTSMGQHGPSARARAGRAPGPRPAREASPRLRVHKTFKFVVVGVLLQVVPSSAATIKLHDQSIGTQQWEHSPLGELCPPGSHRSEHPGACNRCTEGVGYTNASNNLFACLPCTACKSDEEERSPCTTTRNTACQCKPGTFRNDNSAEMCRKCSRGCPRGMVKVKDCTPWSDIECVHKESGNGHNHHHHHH
Experimental: (§1) In order to measure the affinity and cross reactivity of the anti-DR4, -DR5 and -TNFα protein scaffold variants based on the Kringle domain structure to the target molecules, an enzyme-linked immunosorbent assay (ELISA) was performed. The target molecules DR4, DR5, TNFα and DcR1, DcR2 were attached to a 96 well EIA/RIA plate (COSTARCorning In., USA) by its reaction at 37° C. for 1 hour, and washed three times with 0.1% PBST (0.1% Tween20, pH 7.4, 137 mM NaCl, 10 mM Phosphate, 2.7 mM KCl, SIGMA-ALDRICH Co., USA) for 10 minutes. The target molecules were attached for 1 hour to a 96 well EIA/RIA plate in 1% PBSB (1% BSA, pH 7.4, 137 mM NaCl, 10 mM Phosphate, 2.7 mM KCl, SIGMA-ALDRICH Co., USA), and then washed three times with 0.1% PBST (0.1% Tween 20, pH 7.4, 137 mM NaCl, 10 mM Phosphate, 2.7 mM KCl, SIGMA-ALDRICH Co., USA) for 10 minutes. Then, the anti-DR4, -DR5 and -TNFα Kringle domain variants were bound, and washed three times with 0.1% PBST for 10 minutes. The anti-DR4, -DR5 and -TNFα Kringle domain variants were primarily bound to mouse-derived anti-c-myc 9e10 mAb (Ig Therapy, Korea), and secondarily bound to alkaline phosphatase (AP)-conjugated anti-mouse mAb (Sigma). Each of the Kringle domain variants was reacted with […] (pNPP, Sigma-aldrich Co., USA) and quantified at an absorbance of 405 nm.

[2] = biological target: T1, human-derived cell death receptor 4, …; assay: ELISA, coated target, A405
Experimental: as §1

DcR2 = biological target: T2, DcR2 (UniProt Q9UBN6 56-211, limits assumed); assay: ELISA, coated target, single binder concentration not given, A405
T2 sequence (looked up): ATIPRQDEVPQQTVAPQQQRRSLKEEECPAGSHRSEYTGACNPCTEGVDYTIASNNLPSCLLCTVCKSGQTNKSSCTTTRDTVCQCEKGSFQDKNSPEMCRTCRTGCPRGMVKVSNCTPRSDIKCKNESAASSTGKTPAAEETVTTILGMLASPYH
Experimental: as §1

DcR1 = biological target: T3, DcR1 (UniProt O14798 26-221, limits assumed); assay: as above
T3 sequence (looked up): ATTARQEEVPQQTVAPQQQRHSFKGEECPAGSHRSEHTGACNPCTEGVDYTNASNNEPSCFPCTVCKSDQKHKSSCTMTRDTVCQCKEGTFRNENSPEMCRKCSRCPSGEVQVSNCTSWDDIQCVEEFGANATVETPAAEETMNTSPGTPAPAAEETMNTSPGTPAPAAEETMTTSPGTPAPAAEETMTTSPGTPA
Experimental: as §1

binding result (DcR2) | binding result (DcR1) | Binder | binding result [1] | binding result [2] | EC50 (read off the curve) [2] [nM]
no binding | no binding | KD505 (designed binder, also called KDS05) CPEDQGDEYDGHEHKTHRGNRCQSWYRPKPHNHGHRIKDRYKYKVKKNYCRNPDTQARPWCFTNRHRDEHELCDQPRC | no binding |  | 
no binding | no binding | KD409 (designed binder) CAKDKGDKYDGHKHKTNRGDKCQTWAKNRPHFHGHRFEVGHEHKIRKNYCRNPDDQDKPWCFTHGYRNQDELCDGPRC | binds |  | 
no binding | no binding | KD445 (designed binder) CHETKGHKYDGHRLRTNKGDRCQPWTKDKPHHHGFRDQYQVRYKLKKNYCRNPDDQNKPWCFTDGNQHEHELCNGPRC | binds |  | 
no binding | no binding | KD437 (designed binder) CAKSRGYKYDGNRYKTNKGDKCQAWTKTKPHDHGHRHGHGDRFRNRKNYCRNPDHESKPWCFTYRDRYRHELCNRPRC | binds |  | 

The remaining lines, values behind:

Binder | binding result (DcR2) | binding result (DcR1) | binding result [1] | binding result [2] | EC50 (read off the curve) [2] [nM]
KDT08 (designed binder, Soluble monomer from Pichia pastoris; also called KRT08; not shown: C-terminal myc tag-6xHis tag of pPICZaA) CPKSGGNGYDGYKHGTNEGLQCQNWDRAKPHDHGIEVQNEYGDRHEKNNCRNPDDKTRPWCFTHKDRYRNELCYQPRC |  |  | no binding |  | 
KD408 (designed binder) CDRHKGPKYDGFRDRTHKGHKCQYWDKPRPHHHGHKHGDEFRNRLGKNYCRNPDSQAEPWCFTHKDKYKYELCYQPRC | no binding | no binding |  | binds | 
KD509 (designed binder) single chain: CAQSKGYRYDGDKDKTNKGHKCQDWAQNKPHVHGHRHEDRHQVKSRKNYCRNPDARARPWCFTNQVRYRNELCYKPRC | no binding |  |  |  | 
KD537 (designed binder) CTRTKGAKYDGYKHRTHEGNKCQSWNKARPHLHGDRLGNKYEHKARKNYCRNPDNRAEPWCFTDKNQNQHELCYGPRC | no binding | no binding | no binding |  | 
KD555 (designed binder, also called KDS55) CDGAQGNGYDGNKHKTHRGNKCQAWPKHGPHYHGNGDQDGHRNKHKKNYCRNPDTRSRPWCFTDQNGHKDELCHGPRC | no binding | no binding | no binding |  | 
KD459 (designed binder) CSRYRGHKYDGYKHRTYKGYQCQSWTKDKPHHHGIRHRNKIRDRFGKNYCRNPDTQNQPWCFTYGDEYRYELCNKPRC |  |  |  |  | ~2000
KD404 (designed binder, Soluble monomer from Pichia pastoris; also called anti-DR4 Kringle domain variant KD404; not shown: C-terminal myc tag-6xHis tag of pPICZaA) CSRDKGYRYDGDGNKTLKGHKCQHWTKSKPHDHGYRHKLGNEDKFKKNYCRNPDTRAGPWCFTDQYRDRDELCYQPRC | no binding |  |  |  | ~600
KD421 (designed binder) CAGAEGNEYDGDKYKTHKGYRCQRWDKSRPHNHGNKDRHQHENKVGKNYCRNPDNEAEPWCFTDQHKHGNELCDRPRC | no binding | no binding | binds |  | 
KD456 (designed binder) CDKNRGNGYDGNEIQTDGGVQCQHWTKTKPHHHGLKLQHEHRVKHEKNYCRNPDARTQPWCFTDKHQHKDELCIEPRC | no binding | no binding |  |  | ~2000
